# Test results published in publication PMC7954794, “Protein context shapes the specificity of SH3 domain-mediated interactions in vivo” (Nature Communications, 2021).
# System: Abp1 PPIs
# Assay: DHFR-PCA of Abp1 SH3-swapped baits (Fig. 2B-D, S2C, S2F);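 as to Protein-protein interaction distance between Abp1 SH3-swapped baits, to ABP1: Euclidean distance between DHFR-PCA score profiles of the baits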;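 as to Protein-protein interaction distance between Abp1 SH3-swapped baits, to BEM1-2: Euclidean distance between DHFR-PCA score profiles of the baits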;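 as to Protein-protein interaction distance between Abp1 SH3-swapped baits, to BOI1: Euclidean distance between DHFR-PCA score profiles of the baits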;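 as to Protein-protein interaction distance between Abp1 SH3-swapped baits, to BZZ1-1: Euclidean distance between DHFR-PCA score profiles of the baits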
# Assay type: cell-based, Saccharomyces cerevisiae
# Details: for Protein-protein interaction distance between Abp1 SH3-swapped baits, to ABP1: Abp1 bait with swapped SH3, distance to bait with ABP1 SH3; for Protein-protein interaction distance between Abp1 SH3-swapped baits, to ABP1 / Protein-protein interaction distance between Abp1 SH3-swapped baits, to BBC1 / Protein-protein interaction distance between Abp1 SH3-swapped baits, to BEM1-1 / Protein-protein interaction distance between Abp1 SH3-swapped baits, to BEM1-2 / Protein-protein interaction distance between Abp1 SH3-swapped baits, to BOI1 / Protein-protein interaction distance between Abp1 SH3-swapped baits, to BOI2 / Protein-protein interaction distance between Abp1 SH3-swapped baits, to BUD14 / Protein-protein interaction distance between Abp1 SH3-swapped baits, to BZZ1-1 / Protein-protein interaction distance between Abp1 SH3-swapped baits, to BZZ1-2 / Protein-protein interaction distance between Abp1 SH3-swapped baits, to CDC25 / Protein-protein interaction distance between Abp1 SH3-swapped baits, to CTTN / Protein-protein interaction distance between Abp1 SH3-swapped baits, to CYK3 / Protein-protein interaction distance between Abp1 SH3-swapped baits, to DBNL / Protein-protein interaction distance between Abp1 SH3-swapped baits, to FUS1 / Protein-protein interaction distance between Abp1 SH3-swapped baits, to HCLS1 / Protein-protein interaction distance between Abp1 SH3-swapped baits, to HOF1 / Protein-protein interaction distance between Abp1 SH3-swapped baits, to HSE1 / Protein-protein interaction distance between Abp1 SH3-swapped baits, to LSB1 / Protein-protein interaction distance between Abp1 SH3-swapped baits, to LSB3 / Protein-protein interaction distance between Abp1 SH3-swapped baits, to MYO3 / Protein-protein interaction distance between Abp1 SH3-swapped baits, to MYO5 / Protein-protein interaction distance between Abp1 SH3-swapped baits, to NBP2 / Protein-protein interaction distance between Abp1 SH3-swapped baits, to PEX13 / Protein-protein interaction distance between Abp1 SH3-swapped baits, to PIN3 / Protein-protein interaction distance between Abp1 SH3-swapped baits, to RVS167 / Protein-protein interaction distance between Abp1 SH3-swapped baits, to SDC25 / Protein-protein interaction distance between Abp1 SH3-swapped baits, to SHO1 / Protein-protein interaction distance between Abp1 SH3-swapped baits, to SLA1-1 / Protein-protein interaction distance between Abp1 SH3-swapped baits, to SLA1-2 / Protein-protein interaction distance between Abp1 SH3-swapped baits, to SLA1-3 / Protein-protein interaction distance between Abp1 SH3-swapped baits, to YSC84: sheet Fig2C; for Protein-protein interaction distance between Abp1 SH3-swapped baits, to BBC1: distance to Abp1 bait with BBC1 SH3; for Protein-protein interaction distance between Abp1 SH3-swapped baits, to BEM1-1: distance to Abp1 bait with BEM1-1 SH3; for Protein-protein interaction distance between Abp1 SH3-swapped baits, to BEM1-2: distance to Abp1 bait with BEM1-2 SH3; for Protein-protein interaction distance between Abp1 SH3-swapped baits, to BOI1: distance to Abp1 bait with BOI1 SH3; for Protein-protein interaction distance between Abp1 SH3-swapped baits, to BOI2: distance to Abp1 bait with BOI2 SH3; for Protein-protein interaction distance between Abp1 SH3-swapped baits, to BUD14: distance to Abp1 bait with BUD14 SH3; for Protein-protein interaction distance between Abp1 SH3-swapped baits, to BZZ1-1: distance to Abp1 bait with BZZ1-1 SH3; for Protein-protein interaction distance between Abp1 SH3-swapped baits, to BZZ1-2: distance to Abp1 bait with BZZ1-2 SH3; for Protein-protein interaction distance between Abp1 SH3-swapped baits, to CDC25: distance to Abp1 bait with CDC25 SH3; for Protein-protein interaction distance between Abp1 SH3-swapped baits, to CTTN: distance to Abp1 bait with CTTN SH3; for Protein-protein interaction distance between Abp1 SH3-swapped baits, to CYK3: distance to Abp1 bait with CYK3 SH3; for Protein-protein interaction distance between Abp1 SH3-swapped baits, to DBNL: distance to Abp1 bait with DBNL SH3; for Protein-protein interaction distance between Abp1 SH3-swapped baits, to FUS1: distance to Abp1 bait with FUS1 SH3; for Protein-protein interaction distance between Abp1 SH3-swapped baits, to HCLS1: distance to Abp1 bait with HCLS1 SH3; for Protein-protein interaction distance between Abp1 SH3-swapped baits, to HOF1: distance to Abp1 bait with HOF1 SH3; for Protein-protein interaction distance between Abp1 SH3-swapped baits, to HSE1: distance to Abp1 bait with HSE1 SH3; for Protein-protein interaction distance between Abp1 SH3-swapped baits, to LSB1: distance to Abp1 bait with LSB1 SH3; for Protein-protein interaction distance between Abp1 SH3-swapped baits, to LSB3: distance to Abp1 bait with LSB3 SH3; for Protein-protein interaction distance between Abp1 SH3-swapped baits, to MYO3: distance to Abp1 bait with MYO3 SH3; for Protein-protein interaction distance between Abp1 SH3-swapped baits, to MYO5: distance to Abp1 bait with MYO5 SH3; for Protein-protein interaction distance between Abp1 SH3-swapped baits, to NBP2: distance to Abp1 bait with NBP2 SH3; for Protein-protein interaction distance between Abp1 SH3-swapped baits, to PEX13: distance to Abp1 bait with PEX13 SH3; for Protein-protein interaction distance between Abp1 SH3-swapped baits, to PIN3: distance to Abp1 bait with PIN3 SH3; for Protein-protein interaction distance between Abp1 SH3-swapped baits, to RVS167: distance to Abp1 bait with RVS167 SH3; for Protein-protein interaction distance between Abp1 SH3-swapped baits, to SDC25: distance to Abp1 bait with SDC25 SH3; for Protein-protein interaction distance between Abp1 SH3-swapped baits, to SHO1: distance to Abp1 bait with SHO1 SH3; for Protein-protein interaction distance between Abp1 SH3-swapped baits, to SLA1-1: distance to Abp1 bait with SLA1-1 SH3; for Protein-protein interaction distance between Abp1 SH3-swapped baits, to SLA1-2: distance to Abp1 bait with SLA1-2 SH3; for Protein-protein interaction distance between Abp1 SH3-swapped baits, to SLA1-3: distance to Abp1 bait with SLA1-3 SH3; for Protein-protein interaction distance between Abp1 SH3-swapped baits, to YSC84: distance to Abp1 bait with YSC84 SH3
# In short: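 Yeast DHFR-PCA in which Abp1 baits, carrying their SH3 replaced by CRISPR–Cas9 with one of 27 yeast SH3s or human CTTN, HCLS1 or DBNL SH3s, were mated against 575 SH3-associated DHFR F[3] preys plus 40 negative controls. Four tests were run per PPI. Diploids were selected twice (48 h, 30 °C), then grown 4 days on PCA selection media.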
# [1] = number of PPIs, difference, Abp1 SH3-swapped with the listed SH3, Fig2D,S2F
Molecule,"Protein-protein interaction distance between Abp1 SH3-swapped baits, to ABP1","Protein-protein interaction distance between Abp1 SH3-swapped baits, to BBC1","Protein-protein interaction distance between Abp1 SH3-swapped baits, to BEM1-1","Protein-protein interaction distance between Abp1 SH3-swapped baits, to BEM1-2","Protein-protein interaction distance between Abp1 SH3-swapped baits, to BOI1","Protein-protein interaction distance between Abp1 SH3-swapped baits, to BOI2","Protein-protein interaction distance between Abp1 SH3-swapped baits, to BUD14","Protein-protein interaction distance between Abp1 SH3-swapped baits, to BZZ1-1","Protein-protein interaction distance between Abp1 SH3-swapped baits, to BZZ1-2","Protein-protein interaction distance between Abp1 SH3-swapped baits, to CDC25","Protein-protein interaction distance between Abp1 SH3-swapped baits, to CTTN","Protein-protein interaction distance between Abp1 SH3-swapped baits, to CYK3","Protein-protein interaction distance between Abp1 SH3-swapped baits, to DBNL","Protein-protein interaction distance between Abp1 SH3-swapped baits, to FUS1","Protein-protein interaction distance between Abp1 SH3-swapped baits, to HCLS1","Protein-protein interaction distance between Abp1 SH3-swapped baits, to HOF1","Protein-protein interaction distance between Abp1 SH3-swapped baits, to HSE1","Protein-protein interaction distance between Abp1 SH3-swapped baits, to LSB1","Protein-protein interaction distance between Abp1 SH3-swapped baits, to LSB3","Protein-protein interaction distance between Abp1 SH3-swapped baits, to MYO3",also measured
"FUS1 (protein, UniProt P11710 1-512, looked up) Nuclear fusion protein FUS1: MVATIMQTTTTVLTTVAAMSTTLASNYISSQASSSTSVTTVTTIATSIRSTPSNLLFSNVAAQPKSSSASTIGLSIGLPIGIFCFGLLILLCYFYLKRNSVSISNPPMSATIPREEEYCRRTNWFSRLFWQSKCEDQNSYSNRDIEKYNDTQWTSGDNMSSKIQYKISKPIIPQHILTPKKTVKNPYAWSGKNISLDPKVNEMEEEKVVDAFLYTKPPNIVHIESSMPSYNDLPSQKTVSSKKTALKTSEKWSYESPLSRWFLRGSTYFKDYGLSKTSLKTPTGAPQLKQMKMLSRISKGYFNESDIMPDERSPILEYNNTPLDANDSVNNLGNTTPDSQITSYRNNNIDLITARPHSVIYGTTAQQTLETNFNDHHDCNKSTEKHELIIPTPSKPLKKRKKRRQSKMYQHLQHLSRSKPLPLTPNSKYNGEASVQLGKTYTVIQDYEPRLTDEIRISLGEKVKILATHTDGWCLVEKCNTQKGSIHVSVDDKRYLNEDRGIVPGDCLQEYD",18.44,16.64,8.021,22.67,12.53,10.5,7.121,17.24,12.64,14.2,13.46,14.91,16.42,0.00,20.02,21.29,16.23,23.45,23.48,21.97,"Protein-protein interaction distance between Abp1 SH3-swapped baits, to MYO5: 21.47; Protein-protein interaction distance between Abp1 SH3-swapped baits, to NBP2: 8.037; Protein-protein interaction distance between Abp1 SH3-swapped baits, to PEX13: 21.37; Protein-protein interaction distance between Abp1 SH3-swapped baits, to PIN3: 21.08; Protein-protein interaction distance between Abp1 SH3-swapped baits, to RVS167: 19.5; Protein-protein interaction distance between Abp1 SH3-swapped baits, to SDC25: 24.28; Protein-protein interaction distance between Abp1 SH3-swapped baits, to SHO1: 16.07; Protein-protein interaction distance between Abp1 SH3-swapped baits, to SLA1-1: 17.65; Protein-protein interaction distance between Abp1 SH3-swapped baits, to SLA1-2: 8.845; Protein-protein interaction distance between Abp1 SH3-swapped baits, to SLA1-3: 23.5; Protein-protein interaction distance between Abp1 SH3-swapped baits, to YSC84: 23.88"
"HOF1 (protein, UniProt Q05080 1-669, looked up) Cytokinesis protein 2: MSYSYEACFWDPNDNGVNILLGHISQGIRSCDSMILFFKQRSELEKDYARRLGAITGKLDKDIGTNMDYGKLNETFNVVLSVEKARAQSHSKQSEILFRQIYTDTKAFAANLQARYTTLSGKIERLRMDKFNKKKGCEVLQKKLQDAQIRFRDLQLNENNMIGAKRVEHNKRELLKWESNSQEYKVQLDVLKQEYKASQKFWIHEWAQLSCELQEMENARISFLQSKLQQFATSSMETYILEQTKMDMLTNHLNSFTAADEISTFSKENGTGRLKHKTSKGDMNSSANWAQMSSISTTSKKTESYMDNIRKLSSQLKETENKRKLASIDKYEKPLPSPEVTMATQFRNSTPVIRNETKVVANPTLSLRSSPVQLQSNVDDSVLRQKPDKPRPIVGEEQLKPDEDSKNPDEKGLMVHKRNQSLSSPSESSSSNPTDFSHIKKRQSMESMTTSVSSMANSIDDSQRFAKSWNSSNRKRKSMSHLQVPSSASSRSDDGGRTPNSAHNLNEDDYNTRRDTSTSTILFKPPVAVRGTSRGHTHRQSMIMQDSSNPIEDALYEMERIQSSSKPGTKTGNIMDERGVVRDRGITVTLPIVTSEGFPVIEYAKAMYPLIGNEAPGLANFHKGDYLLITEIVNKDWYKGEVYDNDRIDRNHRIGLIPYNFIQLLHQGL",30.98,29.63,23.16,6.415,26.74,25.74,21.88,30.35,27.6,10.42,25.67,10.8,29.45,21.29,32.71,0.00,29.42,35.15,34.67,33.94,"Protein-protein interaction distance between Abp1 SH3-swapped baits, to MYO5: 33.29; Protein-protein interaction distance between Abp1 SH3-swapped baits, to NBP2: 21.63; Protein-protein interaction distance between Abp1 SH3-swapped baits, to PEX13: 33.79; Protein-protein interaction distance between Abp1 SH3-swapped baits, to PIN3: 32.38; Protein-protein interaction distance between Abp1 SH3-swapped baits, to RVS167: 32.19; Protein-protein interaction distance between Abp1 SH3-swapped baits, to SDC25: 7.905; Protein-protein interaction distance between Abp1 SH3-swapped baits, to SHO1: 29.05; Protein-protein interaction distance between Abp1 SH3-swapped baits, to SLA1-1: 9.015; Protein-protein interaction distance between Abp1 SH3-swapped baits, to SLA1-2: 20.72; Protein-protein interaction distance between Abp1 SH3-swapped baits, to SLA1-3: 35.48; Protein-protein interaction distance between Abp1 SH3-swapped baits, to YSC84: 34.92; PPIs gained by Abp1 - SH3-dependent PPIs gained by Abp1 [1]: 1; SH3-dependent PPIs - SH3-dependent PPIs gained by Abp1 [1]: 4; SH3-dependent PPIs gained by Abp1 (number of PPIs, Abp1 SH3-swapped with the listed SH3, DHFR-PCA, Fig2D,S2F): 0"
